From patent publication US20230365698A1, “ANTI-IFNAR1 DOSING REGIME FOR SUBCUTANEOUS INJECTION” (published 2023)

Key:
[1] = biological target: T1, subunit 1 of the type I interferon receptor (IFNAR1), in patients (human, UniProt P17181); experiment: cell-based or functional assay
T1 sequence: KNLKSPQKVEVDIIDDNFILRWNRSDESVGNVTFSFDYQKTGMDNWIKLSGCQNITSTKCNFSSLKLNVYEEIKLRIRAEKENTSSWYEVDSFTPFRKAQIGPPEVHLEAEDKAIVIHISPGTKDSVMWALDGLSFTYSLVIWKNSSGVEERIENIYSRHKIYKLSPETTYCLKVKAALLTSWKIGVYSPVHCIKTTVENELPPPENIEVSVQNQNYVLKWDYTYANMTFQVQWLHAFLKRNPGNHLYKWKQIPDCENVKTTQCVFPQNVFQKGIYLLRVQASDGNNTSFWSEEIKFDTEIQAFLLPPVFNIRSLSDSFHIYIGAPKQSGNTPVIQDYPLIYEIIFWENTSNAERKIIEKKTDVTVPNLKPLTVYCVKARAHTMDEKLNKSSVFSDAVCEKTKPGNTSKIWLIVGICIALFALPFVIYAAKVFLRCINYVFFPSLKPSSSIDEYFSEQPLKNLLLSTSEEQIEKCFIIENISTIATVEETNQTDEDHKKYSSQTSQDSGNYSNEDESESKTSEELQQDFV

[2] = biological target: T1, subunit 1 of the type I interferon …; experiment: cell-based or functional assay; remark: listed apart in the source

IC50 (nM): anifrolumab concentration required to produce 50% of the maximum inhibition of the 21-IFNGS expression relative to baseline (PK/PD model estimate from TULIP-1 and TULIP-2 data) [1]: 6.56 nM
IC80: approximate anifrolumab concentration required to produce 80% of the maximum inhibition of the 21-IFNGS expression relative to baseline (PK/PD model estimate) [2]: 3.88 µg/mL
B1: Anifrolumab (antibody, V domains shown)
VH: EVQLVQSGAEVKKPGESLKISCKGSGYIFTNYWIAWVRQMPGKGLESMGIIYPGDSDIRYSPSFQGQVTISADKSITTAYLQWSSLKASDTAMYYCARHDIEGFDYWGRGTLVTVSS
VL: EIVLTQSPGTLSLSPGERATLSCRASQSVSSSFFAWYQQKPGQAPRLLIYGASSRATGIPDRLSGSGSGTDFTLTITRLEPEDFAVYYCQQYDSSAITFGQGTRLEIKR
